The test concerns the target T1, meditope-enabled trastuzumab.
T1 construct: after it there are no differences from the human heavy chain of trastuzumab; Full IgG was expressed; Labelled with Alexa dyes in FACS; also called TM; trastuzumab memab
Description: SPR.

T1 sequence (heavy, as listed by the source, chain 1 of 2): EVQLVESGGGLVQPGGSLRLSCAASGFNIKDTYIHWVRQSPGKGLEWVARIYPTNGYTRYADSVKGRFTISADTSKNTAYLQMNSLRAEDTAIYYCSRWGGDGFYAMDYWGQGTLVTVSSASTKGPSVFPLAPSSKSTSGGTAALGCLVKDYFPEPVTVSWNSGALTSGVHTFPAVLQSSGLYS
T1 sequence (light, as listed by the source, chain 2 of 2): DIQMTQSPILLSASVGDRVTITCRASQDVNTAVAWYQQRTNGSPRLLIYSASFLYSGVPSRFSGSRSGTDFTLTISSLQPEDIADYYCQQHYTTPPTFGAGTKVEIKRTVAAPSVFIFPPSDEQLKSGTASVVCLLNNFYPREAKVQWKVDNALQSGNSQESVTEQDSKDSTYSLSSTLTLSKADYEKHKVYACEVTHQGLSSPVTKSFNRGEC

B1: Protein L (other)
chain: SEVTIKVNLIFADGKIQTAEFKGTFEEATAEAYRYAALLAKVNGEYTADLEDGGNHMNIKFAG
notes: also called Protein L (only); PpL
As to B1, the dissociation constant (Kd) (in general, a measure of binding affinity in units of concentration) was ~500 nM.

(Values after patent publication EP3741773A1 (City of Hope, dated 2020).)
